Laboratory results from patent publication US20200040082A1 (Seagen, published 2020).
Residue numbers refer to the chain shown, from its start. Blank lines part the entries; values can stand above or below the binder they belong to.

What was measured:
[1] = molecular target: T1, human TIGIT (T-cell immunoreceptor with Ig and ITIM domains) (human, UniProt Q495A1 22-244); assay: competition flow cytometry against hCD112-Fc-AlexaFluor647 on 293-hTIGIT cells
T1 construct: also called hTIGIT
T1 sequence: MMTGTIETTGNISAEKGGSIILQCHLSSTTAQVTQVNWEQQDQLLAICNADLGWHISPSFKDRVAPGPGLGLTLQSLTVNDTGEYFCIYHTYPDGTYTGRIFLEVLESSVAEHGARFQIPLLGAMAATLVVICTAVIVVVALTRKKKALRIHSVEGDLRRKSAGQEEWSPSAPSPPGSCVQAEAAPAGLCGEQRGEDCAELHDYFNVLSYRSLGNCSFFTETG

[2] = molecular target: T1, human TIGIT (T-cell immunoreceptor with …); assay: competition flow cytometry against 1 ug/mL hCD155-Fc-AlexaFluor647 on 293-hTIGIT cells
Description: Samples were analyzed on a CytoFLEX flow cytometer. Median fluorescence intensity of the FSC/SSC gated population was determined for each antibody concentration. Percent blockade was calculated relative to the MFI of the no antibody control. NonLinear regression of Log(X) transformed data was performed in GraphPad Prism 6.

[3] = molecular target: T2, cynomolgus monkey TIGIT (cynomolgus monkey); assay: flow cytometry, MFI on cyno TIGIT HEK 293 cells over parental HEK 293 cells
T2 construct: On HEK 293 cells (lentiviral transduction) and on cynomolgus peripheral blood T cells; also called cyno TIGIT
Description: (§1) HEK 293 cells were engineered to stably express high levels of human, mouse or cynomolgus monkey TIGIT by lentiviral transduction. […] Cells were then washed twice with wash buffer and incubated with anti-human IgG conjugated to PE for 15 minutes on ice. Cells were then washed twice with wash buffer and analyzed by flow cytometry on a FACS Canto II instrument (BD Biosciences). Fold over background (FOB) was calculated as the median fluorescence intensity (MFI) of the anti-TIGIT clone bound to target-positive cells divided by the MFI of the anti-TIGIT clone bound to target-negative cells.

[4] = molecular target: T1, human TIGIT (T-cell immunoreceptor with …); assay: flow cytometry, MFI on human TIGIT HEK 293 cells over parental HEK 293 cells
Description: as §1

[5] = molecular target: T1, human TIGIT (T-cell immunoreceptor with …); assay: flow cytometry titration on HEK 293 cells expressing human TIGIT
[6] = molecular target: T3, discontinuous epitope mimic CILQ2HLSSTTAQVTQCI2NADLGWHISPSFKC (Cys-acetamidomethyl (Cys-acm, printed as '2') at positions 5 and 19; Cys at positions 1, 17 and 33 used for the T3 CLIPS scaffold (as for Set 8)); assay: Pepscan-based peptide array ELISA, discontinuous epitope mimics
T3 peptide: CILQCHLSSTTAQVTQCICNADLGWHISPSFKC
Description: (§2) The binding of antibody to each of the synthesized peptides was tested in a pepscan-based ELISA. The peptide arrays were incubated with primary antibody solution (overnight at 4° C.). After washing, the peptide arrays were incubated with a 1/1000 dilution of a goat anti-human HRP conjugate (Southern Biotech) for one hour at 25° C. […] After one hour, the color development was measured. The color development was quantified with a charge coupled device (CCD)—camera and an image processing system.

[7] = molecular target: T4, discontinuous epitope mimic CKDRVAPGPGLGLTLQCI2NADLGWHISPSFKC (Cys-acetamidomethyl (Cys-acm, printed as '2') at position 19; Cys at positions 1, 17 and 33 used for the T3 CLIPS scaffold (as for Set 8)); assay: as above
T4 peptide: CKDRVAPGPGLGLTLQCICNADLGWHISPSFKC
Description: as §2

T2 sequence (chain, as listed by the source limits assumed): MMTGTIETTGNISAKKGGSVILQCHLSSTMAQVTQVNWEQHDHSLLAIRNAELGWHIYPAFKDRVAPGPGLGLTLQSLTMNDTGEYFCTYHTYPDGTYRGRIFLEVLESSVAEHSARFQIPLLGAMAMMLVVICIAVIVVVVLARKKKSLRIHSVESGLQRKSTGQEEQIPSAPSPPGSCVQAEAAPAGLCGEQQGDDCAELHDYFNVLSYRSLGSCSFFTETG

IC50 (read off the curve) [1]: ~0.09 µg/mL
IC50 (read off the curve) [2]: ~0.2 µg/mL
B1: Clone 13 (antibody, human IgG1, V domains shown)
VH: QVQLVQSGAEVKKPGSSVKVSCKASGGTFSSYAISWVRQAPGQGLEWMGSIIPIFGTANYAQKFQGRVTITADESTSTAYMELSSLRSEDTAVYYCARGPSEVGAILGYVWFDPWGQGTLVTVSS
VL: not shown
notes: Fully human IgG1 ('c13 hIgG1'); also called anti-TIGIT clone 13; c13 hIgG1

FOB (Fold Over Background) [3]: 245 fold
FOB (Fold Over Background) [4]: 190 fold
B2: Clone 13D (antibody, V domains shown)
VH: B1 VH with S30L, Y32S, I54Y, T57K, G104K, A105G
VL: not shown
notes: IgG

EC50 [5]: 0.04 µg/mL
IC50 (read off the curve) [1]: ~0.06 µg/mL
B3: mouse IgG2a chimera of anti-TIGIT clone 13 (antibody, V domains shown)
VH: B1 VH
VL: not shown
notes: also called c13 mIgG2a

binding result [6]: binds
binding result [7]: binds
B4: Clone 25 (antibody, V domains shown)
VH: QVQLVQSGAEVKKPGASVKVSCKASGYTFTSYAISWVRQAPGQGLEWMGWISAYNGNTNYAQKLQGRVTMTTDTSTSTAYMELRSLRSDDTAVYYCARDLSSFWSGDVLGAFDIWGQGTMVTVSS
VL: DIQMTQSPSSLSASVGDRVTITCRASQSISSYLNWYQQKPGKAPKLLIYAASSLQSGVPSRFSGSGSGTDFTLTISSLQPEDFATYYCQQSVPPRTFGGGTKVEIK
notes: Fully human IgG from a yeast presentation system; also called anti-TIGIT clone 25
